PMC3041752

Legend:
[1] = biological target: budding yeast Proliferating Cell Nuclear Antigen (PCNA) (budding yeast); experiment: AUC; sedimentation velocity, 100 µM protein (monomer concentration); trimer to monomers
[2] = biological target: budding yeast Proliferating Cell Nuclear Antigen (PCNA) (budding yeast); experiment: SEC-MALS; gel filtration coupled to multi-angle light scattering; 3 or 0.3 mg/ml (~100 or 10 µM) in 20 mM sodium phosphate, 150 mM NaCl, 0.03% (w/v) sodium azide, pH 7.0
[3] = biological target: human Proliferating Cell Nuclear Antigen (PCNA) (human); experiment: AUC; sedimentation velocity, 100 µM protein (monomer concentration); trimer to monomers
[4] = biological target: human Proliferating Cell Nuclear Antigen (PCNA) (human); experiment: SEC-MALS; gel filtration coupled to multi-angle light scattering; 3 or 0.3 mg/ml (~100 or 10 µM) in 20 mM sodium phosphate, 150 mM NaCl, 0.03% (w/v) sodium azide, pH 7.0

Row | population of monomers in equilibrium with the trimer [1] [%] | stoichiometry N [1] | population of species with the molecular weight of a dimer of trimers [2] [%] | stoichiometry N [2] | population of monomers in equilibrium with the trimer [3] [%] | stoichiometry N [3] | population of species with the molecular weight of a dimer of trimers [4] [%] | stoichiometry N [4] | Substance
1 | < 3 | 3 | < 4 | 3 |  |  |  |  | budding yeast Proliferating Cell Nuclear Antigen (PCNA) (natural protein)
2 |  |  |  |  | < 3 | 3 | < 4 | 3 | human Proliferating Cell Nuclear Antigen (PCNA) (natural protein)
